Test results: patent publication US20230272029A1, “CO-AGONISTS AT GLP-1 AND GIP RECEPTORS SUITABLE FOR ORAL DELIVERY” (Novo Nordisk A/S, priority 2020, published 2023)
Starred links: 1 amine or outer side, 2 acyl side, 3 side chain; linkers in the order of their positions; H or OH if unused. Non-standard residues stand in square brackets, D forms with d. Groups on a side chain read outwards from the residue. No end group written: not given here. *: point of attachment. C18 diacid = O=C(O)CCCCCCCCCCCCCCCCC(=O)*; γGlu = O=C(O)[C@H](CCC(=O)[*:2])N[*:1]; εLys = N[C@@H](CCCCN[*:1])C(=O)[*:2]; Aib = CC(C)(N)C(=O)O

B1: Compound No. 29 (peptide)
peptide: Y[Aib]EGTFTSDYSILLEK([εLys-εLys-γGlu-C18 diacid])QAAQEFIEWLLAGGPSSGAPPPS-OH
modifications: N-terminus assumed
SMILES: CC[C@H](C)[C@H](NC(=O)[C@H](Cc1ccccc1)NC(=O)[C@H](CCC(=O)O)NC(=O)[C@H](CCC(N)=O)NC(=O)[C@H](C)NC(=O)[C@H](C)NC(=O)[C@H](CCC(N)=O)NC(=O)[C@H](CCCCNC(=O)[C@@H](N)CCCCNC(=O)[C@@H](N)CCCCNC(=O)CC[C@H](NC(=O)CCCCCCCCCCCCCCCCC(=O)O)C(=O)O)NC(=O)[C@H](CCC(=O)O)NC(=O)[C@H](CC(C)C)NC(=O)[C@H](CC(C)C)NC(=O)[C@@H](NC(=O)[C@H](CO)NC(=O)[C@H](Cc1ccc(O)cc1)NC(=O)[C@H](CC(=O)O)NC(=O)[C@H](CO)NC(=O)[C@@H](NC(=O)[C@H](Cc1ccccc1)NC(=O)[C@@H](NC(=O)CNC(=O)[C@H](CCC(=O)O)NC(=O)C(C)(C)NC(=O)[C@@H](N)Cc1ccc(O)cc1)[C@@H](C)O)[C@@H](C)O)[C@@H](C)CC)C(=O)N[C@@H](CCC(=O)O)C(=O)N[C@@H](Cc1c[nH]c2ccccc12)C(=O)N[C@@H](CC(C)C)C(=O)N[C@@H](CC(C)C)C(=O)N[C@@H](C)C(=O)NCC(=O)NCC(=O)N1CCC[C@H]1C(=O)N[C@@H](CO)C(=O)N[C@@H](CO)C(=O)NCC(=O)N[C@@H](C)C(=O)N1CCC[C@H]1C(=O)N1CCC[C@H]1C(=O)N1CCC[C@H]1C(=O)N[C@@H](CO)C(=O)O
B2: Compound No. 3 (peptide)
peptide: Y[Aib]EGTFTSDYSYYLEK([εLys-εLys-γGlu-C18 diacid])QAAQEFVNWLLAGGPSSGAPPPS-NH2
modifications: N-terminus assumed
SMILES: CC(C)C[C@H](NC(=O)[C@H](CC(C)C)NC(=O)[C@H](Cc1c[nH]c2ccccc12)NC(=O)[C@H](CC(N)=O)NC(=O)[C@@H](NC(=O)[C@H](Cc1ccccc1)NC(=O)[C@H](CCC(=O)O)NC(=O)[C@H](CCC(N)=O)NC(=O)[C@H](C)NC(=O)[C@H](C)NC(=O)[C@H](CCC(N)=O)NC(=O)[C@H](CCCCNC(=O)[C@@H](N)CCCCNC(=O)[C@@H](N)CCCCNC(=O)CC[C@H](NC(=O)CCCCCCCCCCCCCCCCC(=O)O)C(=O)O)NC(=O)[C@H](CCC(=O)O)NC(=O)[C@H](CC(C)C)NC(=O)[C@H](Cc1ccc(O)cc1)NC(=O)[C@H](Cc1ccc(O)cc1)NC(=O)[C@H](CO)NC(=O)[C@H](Cc1ccc(O)cc1)NC(=O)[C@H](CC(=O)O)NC(=O)[C@H](CO)NC(=O)[C@@H](NC(=O)[C@H](Cc1ccccc1)NC(=O)[C@@H](NC(=O)CNC(=O)[C@H](CCC(=O)O)NC(=O)C(C)(C)NC(=O)[C@@H](N)Cc1ccc(O)cc1)[C@@H](C)O)[C@@H](C)O)C(C)C)C(=O)N[C@@H](C)C(=O)NCC(=O)NCC(=O)N1CCC[C@H]1C(=O)N[C@@H](CO)C(=O)N[C@@H](CO)C(=O)NCC(=O)N[C@@H](C)C(=O)N1CCC[C@H]1C(=O)N1CCC[C@H]1C(=O)N1CCC[C@H]1C(=O)N[C@@H](CO)C(N)=O
B3: Compound No. 27 (peptide)
peptide: Y[Aib]EGTFTSDYSILLEK([εLys-εLys-γGlu-C18 diacid])QAAREFIEWLLRGGPSSGAPPPS-OH
modifications: N-terminus assumed
SMILES: CC[C@H](C)[C@H](NC(=O)[C@H](Cc1ccccc1)NC(=O)[C@H](CCC(=O)O)NC(=O)[C@H](CCCNC(=N)N)NC(=O)[C@H](C)NC(=O)[C@H](C)NC(=O)[C@H](CCC(N)=O)NC(=O)[C@H](CCCCNC(=O)[C@@H](N)CCCCNC(=O)[C@@H](N)CCCCNC(=O)CC[C@H](NC(=O)CCCCCCCCCCCCCCCCC(=O)O)C(=O)O)NC(=O)[C@H](CCC(=O)O)NC(=O)[C@H](CC(C)C)NC(=O)[C@H](CC(C)C)NC(=O)[C@@H](NC(=O)[C@H](CO)NC(=O)[C@H](Cc1ccc(O)cc1)NC(=O)[C@H](CC(=O)O)NC(=O)[C@H](CO)NC(=O)[C@@H](NC(=O)[C@H](Cc1ccccc1)NC(=O)[C@@H](NC(=O)CNC(=O)[C@H](CCC(=O)O)NC(=O)C(C)(C)NC(=O)[C@@H](N)Cc1ccc(O)cc1)[C@@H](C)O)[C@@H](C)O)[C@@H](C)CC)C(=O)N[C@@H](CCC(=O)O)C(=O)N[C@@H](Cc1c[nH]c2ccccc12)C(=O)N[C@@H](CC(C)C)C(=O)N[C@@H](CC(C)C)C(=O)N[C@@H](CCCNC(=N)N)C(=O)NCC(=O)NCC(=O)N1CCC[C@H]1C(=O)N[C@@H](CO)C(=O)N[C@@H](CO)C(=O)NCC(=O)N[C@@H](C)C(=O)N1CCC[C@H]1C(=O)N1CCC[C@H]1C(=O)N1CCC[C@H]1C(=O)N[C@@H](CO)C(=O)O
B4: Compound No. 39 (peptide)
peptide: Y[Aib]EGTFTSDYSILLEEQAARK([εLys-εLys-γGlu-C18 diacid])FINWLLAGGPSSGAPPPS-OH
modifications: N-terminus assumed
SMILES: CC[C@H](C)[C@H](NC(=O)[C@H](Cc1ccccc1)NC(=O)[C@H](CCCCNC(=O)[C@@H](N)CCCCNC(=O)[C@@H](N)CCCCNC(=O)CC[C@H](NC(=O)CCCCCCCCCCCCCCCCC(=O)O)C(=O)O)NC(=O)[C@H](CCCNC(=N)N)NC(=O)[C@H](C)NC(=O)[C@H](C)NC(=O)[C@H](CCC(N)=O)NC(=O)[C@H](CCC(=O)O)NC(=O)[C@H](CCC(=O)O)NC(=O)[C@H](CC(C)C)NC(=O)[C@H](CC(C)C)NC(=O)[C@@H](NC(=O)[C@H](CO)NC(=O)[C@H](Cc1ccc(O)cc1)NC(=O)[C@H](CC(=O)O)NC(=O)[C@H](CO)NC(=O)[C@@H](NC(=O)[C@H](Cc1ccccc1)NC(=O)[C@@H](NC(=O)CNC(=O)[C@H](CCC(=O)O)NC(=O)C(C)(C)NC(=O)[C@@H](N)Cc1ccc(O)cc1)[C@@H](C)O)[C@@H](C)O)[C@@H](C)CC)C(=O)N[C@@H](CC(N)=O)C(=O)N[C@@H](Cc1c[nH]c2ccccc12)C(=O)N[C@@H](CC(C)C)C(=O)N[C@@H](CC(C)C)C(=O)N[C@@H](C)C(=O)NCC(=O)NCC(=O)N1CCC[C@H]1C(=O)N[C@@H](CO)C(=O)N[C@@H](CO)C(=O)NCC(=O)N[C@@H](C)C(=O)N1CCC[C@H]1C(=O)N1CCC[C@H]1C(=O)N1CCC[C@H]1C(=O)N[C@@H](CO)C(=O)O
B5: Compound No. 28 (peptide)
peptide: Y[Aib]EGTFTSDYSILLEK([εLys-εLys-γGlu-C18 diacid])QAAREFIEWLLRGGPESGAPPPS-OH
modifications: N-terminus assumed
SMILES: CC[C@H](C)[C@H](NC(=O)[C@H](Cc1ccccc1)NC(=O)[C@H](CCC(=O)O)NC(=O)[C@H](CCCNC(=N)N)NC(=O)[C@H](C)NC(=O)[C@H](C)NC(=O)[C@H](CCC(N)=O)NC(=O)[C@H](CCCCNC(=O)[C@@H](N)CCCCNC(=O)[C@@H](N)CCCCNC(=O)CC[C@H](NC(=O)CCCCCCCCCCCCCCCCC(=O)O)C(=O)O)NC(=O)[C@H](CCC(=O)O)NC(=O)[C@H](CC(C)C)NC(=O)[C@H](CC(C)C)NC(=O)[C@@H](NC(=O)[C@H](CO)NC(=O)[C@H](Cc1ccc(O)cc1)NC(=O)[C@H](CC(=O)O)NC(=O)[C@H](CO)NC(=O)[C@@H](NC(=O)[C@H](Cc1ccccc1)NC(=O)[C@@H](NC(=O)CNC(=O)[C@H](CCC(=O)O)NC(=O)C(C)(C)NC(=O)[C@@H](N)Cc1ccc(O)cc1)[C@@H](C)O)[C@@H](C)O)[C@@H](C)CC)C(=O)N[C@@H](CCC(=O)O)C(=O)N[C@@H](Cc1c[nH]c2ccccc12)C(=O)N[C@@H](CC(C)C)C(=O)N[C@@H](CC(C)C)C(=O)N[C@@H](CCCNC(=N)N)C(=O)NCC(=O)NCC(=O)N1CCC[C@H]1C(=O)N[C@@H](CCC(=O)O)C(=O)N[C@@H](CO)C(=O)NCC(=O)N[C@@H](C)C(=O)N1CCC[C@H]1C(=O)N1CCC[C@H]1C(=O)N1CCC[C@H]1C(=O)N[C@@H](CO)C(=O)O
B6: Compound No. 26 (peptide)
peptide: Y[Aib]EGTFTSDYSILLEK([εLys-εLys-γGlu-C18 diacid])QAAHEFINWLLAGGPSSGAPPPS-OH
modifications: N-terminus assumed
SMILES: CC[C@H](C)[C@H](NC(=O)[C@H](Cc1ccccc1)NC(=O)[C@H](CCC(=O)O)NC(=O)[C@H](Cc1c[nH]cn1)NC(=O)[C@H](C)NC(=O)[C@H](C)NC(=O)[C@H](CCC(N)=O)NC(=O)[C@H](CCCCNC(=O)[C@@H](N)CCCCNC(=O)[C@@H](N)CCCCNC(=O)CC[C@H](NC(=O)CCCCCCCCCCCCCCCCC(=O)O)C(=O)O)NC(=O)[C@H](CCC(=O)O)NC(=O)[C@H](CC(C)C)NC(=O)[C@H](CC(C)C)NC(=O)[C@@H](NC(=O)[C@H](CO)NC(=O)[C@H](Cc1ccc(O)cc1)NC(=O)[C@H](CC(=O)O)NC(=O)[C@H](CO)NC(=O)[C@@H](NC(=O)[C@H](Cc1ccccc1)NC(=O)[C@@H](NC(=O)CNC(=O)[C@H](CCC(=O)O)NC(=O)C(C)(C)NC(=O)[C@@H](N)Cc1ccc(O)cc1)[C@@H](C)O)[C@@H](C)O)[C@@H](C)CC)C(=O)N[C@@H](CC(N)=O)C(=O)N[C@@H](Cc1c[nH]c2ccccc12)C(=O)N[C@@H](CC(C)C)C(=O)N[C@@H](CC(C)C)C(=O)N[C@@H](C)C(=O)NCC(=O)NCC(=O)N1CCC[C@H]1C(=O)N[C@@H](CO)C(=O)N[C@@H](CO)C(=O)NCC(=O)N[C@@H](C)C(=O)N1CCC[C@H]1C(=O)N1CCC[C@H]1C(=O)N1CCC[C@H]1C(=O)N[C@@H](CO)C(=O)O

target: human GLP-1 receptor (human, UniProt P43220 24-463); assay: cell-based or functional assay

Binder	hGLP-1R, CRE Luc 0% HSA EC50 (pM)	hGLP-1R, CRE Luc 1% HSA EC50 (pM)
B1	16.8	378
B2	8.5	626
B3	4.6	127
B4	8.2	135
B5	6.2	139
B6	7.4	595

target: T1, human GIP receptor (human, UniProt P48546 22-466); assay: cell-based or functional assay
T1 sequence (looked up): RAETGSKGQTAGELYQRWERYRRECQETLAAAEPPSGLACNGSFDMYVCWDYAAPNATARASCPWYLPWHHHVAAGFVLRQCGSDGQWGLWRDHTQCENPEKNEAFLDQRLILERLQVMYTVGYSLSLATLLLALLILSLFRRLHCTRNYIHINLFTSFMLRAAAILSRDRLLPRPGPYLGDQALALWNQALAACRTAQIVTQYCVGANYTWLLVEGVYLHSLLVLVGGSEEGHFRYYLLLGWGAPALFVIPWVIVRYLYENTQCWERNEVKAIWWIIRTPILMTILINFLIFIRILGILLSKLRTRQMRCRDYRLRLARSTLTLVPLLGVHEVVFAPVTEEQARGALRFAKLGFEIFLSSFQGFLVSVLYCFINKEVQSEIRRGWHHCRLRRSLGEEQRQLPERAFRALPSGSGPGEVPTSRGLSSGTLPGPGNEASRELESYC

Binder	hGIPR, CRE Luc 0% HSA EC50 (pM)	hGIPR, CRE Luc 1% HSA EC50 (pM)
B1	3.8	102
B2	6.9	229
B3	6.3	132
B4	28.4	365
B5	6.6	86.5
B6	4.9	153
